In patent US20200055939A1 one finds fold-decrease in affinity and Elisa value data, which are given here for four molecules.

Residue numbers refer to the chain shown, from its start. “And” between values parts separate entries of the source, which are not always exact repeats. Equal values may be shown once.

The target of one assay is V244A. Description: SPR, Fab over captured MICA*008.mIgG2a Ala variant; KD relative to wild type. For orientation: In SPR one partner is held on a chip, and binding of the other changes the refractive index at the surface.
For another assay, the target named is E285A. The assay is described as above.
The target in another assay is Y283A. Described as above.
A further assay concerns the target H290A. The assay is described as above.
The next assay concerns the target R279A. The assay is described as above.
A further assay has as its target H248A. The assay is described as above.
In a further assay the target is R274A. The description is as above.
The next assay addresses G275A. Described as above.
For the next assay, the target named is R240A. The assay is described as above.
For a further assay, the target named is I236A. The description is as above.
The target in another assay is D249A. The assay is described as above.
The target in another assay is T292A. The description is as above.
The target of the next assay is S245A. Described as above.
Another assay deals with Q241A. Described as above.
A further assay addresses the other Glyco variants. Description: ELISA, coated variant. On the technique in general: In an ELISA, binding on a coated surface is turned into a signal by an enzyme label.

Sequence of V244A (chain, as listed by the source V244A V244A limits assumed): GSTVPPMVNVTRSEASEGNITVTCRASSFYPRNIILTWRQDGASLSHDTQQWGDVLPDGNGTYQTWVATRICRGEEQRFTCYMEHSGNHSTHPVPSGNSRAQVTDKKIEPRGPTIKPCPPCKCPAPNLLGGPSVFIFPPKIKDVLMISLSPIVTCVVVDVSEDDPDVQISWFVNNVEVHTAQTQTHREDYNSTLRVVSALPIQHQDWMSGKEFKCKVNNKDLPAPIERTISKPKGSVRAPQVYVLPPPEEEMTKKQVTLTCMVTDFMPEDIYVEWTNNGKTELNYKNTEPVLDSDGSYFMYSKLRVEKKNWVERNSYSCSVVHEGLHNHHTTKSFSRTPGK
Sequence of Y283A (chain, as listed by the source Y283A Y283A limits assumed): as the sequence (chain, as listed by the source V244A V244A limits assumed) above, with A43V, Y82A counted along it
Sequence of R240A (chain, as listed by the source R240A R240A limits assumed): as the sequence (chain, as listed by the source V244A V244A limits assumed) above, with R39A, A43V counted along it
Sequence of G275A (chain, as listed by the source G275A G275A limits assumed): as the sequence (chain, as listed by the source V244A V244A limits assumed) above, with A43V, G74A counted along it
Sequence of S245A (chain, as listed by the source S245A S245A limits assumed): as the sequence (chain, as listed by the source V244A V244A limits assumed) above, with A43V, S44A counted along it
Sequence of R274A (chain, as listed by the source R274A R274A limits assumed): as the sequence (chain, as listed by the source V244A V244A limits assumed) above, with A43V, R73A counted along it
Sequence of D249A (chain, as listed by the source D249A D249A limits assumed): as the sequence (chain, as listed by the source V244A V244A limits assumed) above, with A43V, D48A counted along it
Sequence of T292A (chain, as listed by the source T292A T292A limits assumed): as the sequence (chain, as listed by the source V244A V244A limits assumed) above, with A43V, T91A counted along it
Sequence of H248A (chain, as listed by the source H248A H248A limits assumed): as the sequence (chain, as listed by the source V244A V244A limits assumed) above, with A43V, H47A counted along it
Sequence of Q241A (chain, as listed by the source Q241A Q241A limits assumed): as the sequence (chain, as listed by the source V244A V244A limits assumed) above, with Q40A, A43V counted along it
Sequence of E285A (chain, as listed by the source E285A E285A limits assumed): as the sequence (chain, as listed by the source V244A V244A limits assumed) above, with A43V, E84A counted along it
Sequence of I236A (chain, as listed by the source I236A I236A limits assumed): as the sequence (chain, as listed by the source V244A V244A limits assumed) above, with I35A, A43V counted along it
Sequence of R279A (chain, as listed by the source R279A R279A limits assumed): as the sequence (chain, as listed by the source V244A V244A limits assumed) above, with A43V, R78A counted along it
Sequence of H290A (chain, as listed by the source H290A H290A limits assumed): as the sequence (chain, as listed by the source V244A V244A limits assumed) above, with A43V, H89A counted along it

B1: 1D5 Fab (Fab, V domains shown, not shown: a dimerising Fc or GST)
VH: EIQLQQSGPELVKPGASVKVSCKASGYAFTSQNIYWVKQSHGKSLEWIGYIEPYNVVPMYNPKFKGKATLTVDKSSSSAYIHLNSLTSEDSAIYYCARSGSSNFDYWGQGTTLTVSS
VL: EIILTQSPTTMAASPGEKITITCSASSSISSHYLHWYQQKSGFSPKLLIYRTSNLASGVPARFSGSGSGTSYSLTIGTMEAEDVATYYCQQGSSLPLTFGAGTKVEIK
For the molecule B1, the fold-decrease in affinity with V244A worked out at 10400; in the assay with E285A it was 1060; in the assay with Y283A, 6260; with H290A, 14400; in the assay with R279A it was 3950; in the assay with H248A, 16. Further, the fold-decrease in affinity is 3 in the assay with R274A; 0.03 with G275A; 15500 with R240A; 0.01 with I236A; 3.5 with D249A; 3040 in the assay with T292A. The fold-decrease in affinity was 13 with S245A and 9830 in the assay with Q241A.

B2: 13A9 (antibody, V domains shown)
VH: QVQLQQSGAELVRPGTSVKVSCKASGYAFTNYLIEWVKQRPGQGLEWIGAINPGSGATNYNEKFKDKARLTADKSSNTAYLQFSSLTSDDSAVYFCARFLGNYFDNWGQGATLTVSS
VL: DIQMTQSPASLSASVGETVTITCRASGNIHSYLAWYQQKQGKSPQLLVYYAETLADGVPSRFSGRGSGTQYSLKINSLQPEDFGSYFCQQFWTTPYTFGGGTKVEIK
As for B2, the Elisa value in the assay with the other Glyco variants was 3.8 and 3.9.

B3: 7D4.6 Fab (Fab, V domains shown)
VH: DVQLQESGPGLVKPSQSLSLTCTVTGYSITSDYAWNWIRQFPRNKLEWMGYINYSGTTNYNPSLKSRISITRDTSKNQFFLQLISVTTEDTATYYCSYYRYDGAWFPYWGQGTLVTVSA
VL: DIQMTQSPASLSASVGETVTITCRASGNIHNYLAWYQQKQGKSPQLLVYNAIMLADGVPSRFSASGSGTQYSLKINSLQPEDFGSYYCQHFWSFPLTFGAGTKVEIK
In the case of B3, the fold-decrease in affinity with V244A was determined as 8.6; with Y283A, 3.2; with G275A it was 3.1; with R240A it was 1500.

B4: 6F8.7 Fab (Fab, V domains shown)
VH: DVQLQGSGPGLVKPSQSLSLTCSVTGYSITNDYYWNWIRQFPGNKLEWMGFISFGGSNNYNPSLKNRISITRDTSKNQFFLKLSSVTTEDTATYYCARYDGRGAWFAYWAQGTLVTVSA
VL: B3 VL with N50D, M53T, A64G, S85N
For B4, the fold-decrease in affinity in the assay with V244A turned out to be 5.5.
